Patent publication US20130052733A1

Molecular target: mAb LGIII 147.4.1
Assay: direct ELISA, capture by mAb LG III 147.4.1, detection with FL119

Work on “HLA-A*1101/LMP2340-349-fused β2m (from UniProt P61769 21-119) (peptide-MHC)” yielded a concentration at which absorbance is saturated of 4 nCM.
